Patent publication US20150037349A1 (TECHNOPHAGE INVESTIGA O E DESENVOLVIMENTO EM BIOTECNOLOGIA, published 2015)

B1: VL18-3L-VL11 DI #3 (other)
chain: ELVLTQQPASVEAAPGGTVTIKCQASQSISSYLAWYQQKPGHPPKLLIYKVSTRASGVSSRFSGSGSGTEFTLTISDLKSADAATYYCQSTYLGGTYVGGAFGGGTELEIKSGGGGSGGGGSGGGGSSGELVMTQQPASVEAAPGGTVTIKCQASQSISSYLAWYQQKPGQPPKLLIYRVSTRASGVSSRFSGSGSGTEFTLTISDLKSADAATYYCQSTYVNRGSVAAFGGGTKVVVKYPYDVPDYA
notes: also called Variant 3
B2: VL18-3L-VL11 DI #1 (other)
chain: ELVLTQQPASVEAAPGGTVTIKCQASQSISSYLAWYQQKPGHPPKLLIYKVSTRASGVSSRFSGSGSGTEFTLTISDLKSADAATYYCQSAYLGGTYVGGAFGGGTELEIKSGGGGSGGGGSGGGGSSGELVMTQQPASVEAAPGGTVTIKCQASQSISSYLAWYQQKPGQPPKLLIYRVSTRASGVSSRFSGSGSGTEFTLTISDLKSADAATYYCQSAYVNRGSVASFGGGTKVVVKYPYDVPDYA
notes: Cloned in pET28a; also called Variant 1
B3: VL18-3L-VL11 DI #5 (other)
chain: ELVLTQQPASVEAAPGGTVTIKCQASQSISSYLAWYQQKPGHPPKLLIYKASTLASGVSSRFSGSGSGTEFTLTISDLKSADAATYYCQSTYLGGTYVGGAFGGGTELEIKSGGGGSGGGGSGGGGSSGELVMTQQPASVEAAPGGTVTIKCQASQSISSYLAWYQQKPGQPPKLLIYRASTLASGVSSRFSGSGSGTEFTLTISDLKSADAATYYCQSTYVNRGSVAAFGGGTKVVVKYPYDVPDYA
notes: also called Variant 5
B4: rat TNF-alpha (ligand)
chain: LRSSSQNSSDKPVAHVVANHQAEEQLEWLSQRANALLANGMDLKDNQLVVPADGLYLIYSQVLFKGQGCPDYVLLTHTVSRFAISYQEKVSLLSAIKSPCPKDTPEGAELKPWYEPMYLGGVFQLEKGDLLSAEVNLPKYLDITESGQVYFGVIAL
B5: VL18-VL18 3L (other)
single chain VL-VL dimer: ELVLTQTPASVEAAVGGTVTIKCQASQSISSYLAWYQQKPGHPPKLLIYKASTLASGVSSRFKGSGSGTEFTLTISDLECADAATYYCQSTYLGGTYVGGAFGGGTELEILSGGGGSGGGGSGGGGSSGELVLTQTPASVEAAVGGTVTIKCQASQSISSYLAWYQQKPGHPPKLLIYKASTLASGVSSRFKGSGSGTEFTLTISDLECADAATYYCQSTYLGGTYVGGAFGGGTELEIL
notes: Hexahistidine tail and HA tag; also called VL18-3L-VL18; VL18-18 #3L
B6: VL18-3L-VL11 DI3-PEP DI #8 (other)
chain: ELVLTQQPASVEAAPGGTVTIKCQASQSISSYLAWYQQKPGHPPKLLIYKVSTRASGVSSRFSGSGSGTEFTLTISDLKSADAATYYCQSTYLGGTYVGGAFGGGTELEIKSGGGGSGGGGSGGGGSSGELVMTQQPASVEAAPGGTVTIKCQASQSISSYLAWYQQKPGQPPKLLIYRVSTRASGVSSRFSGSGSGTEFTLTISDLKSADAATYYCQSTYVNRGSVAAFGGGTKVVVKSGGGGSGGGGSGGGGSSGDITGAALLEAKDAAINELKQYGISDYYVHLINKADTVEGVNALKDEILSALPYPYDVPDYA
notes: De-immunized dimer DI #3 fused to de-immunized PEP; also called Variant 8
B7: VL18-3L-VL11 DI5-PEP DI #9 (other)
chain: ELVLTQQPASVEAAPGGTVTIKCQASQSISSYLAWYQQKPGHPPKLLIYKASTLASGVSSRFSGSGSGTEFTLTISDLKSADAATYYCQSTYLGGTYVGGAFGGGTELEIKSGGGGSGGGGSGGGGSSGELVMTQQPASVEAAPGGTVTIKCQASQSISSYLAWYQQKPGQPPKLLIYRASTLASGVSSRFSGSGSGTEFTLTISDLKSADAATYYCQSTYVNRGSVAAFGGGTKVVVKSGGGGSGGGGSGGGGSSGDITGAALLEAKDAAINELKQYGISDYYVHLINKADTVEGVNALKDEILSALPYPYDVPDYA
notes: De-immunized dimer DI #5 fused to de-immunized PEP; also called Variant 9
B8: VL11-VL18 3L (other)
single chain VL-VL dimer: ELVMTQTPASVEAAVGGTVTIKCQASQSISRYLAWYQQKPGQPPKLLIYRASTLASGVSSRFKGSGSGTEFTLTISDLECADAATYYCQSTYVNRGSVAAFGGGTEVVVKSGGGGSGGGGSGGGGSSGELVLTQTPASVEAAVGGTVTIKCQASQSISSYLAWYQQKPGHPPKLLIYKASTLASGVSSRFKGSGSGTEFTLTISDLECADAATYYCQSTYLGGTYVGGAFGGGTELEIL
notes: Hexahistidine tail and HA tag; also called VL11-3L-VL18; VL11-18 #3L
B9: rat albumin (other)
chain: EAHKSEIAHRFKDLGEQHFKGLVLIAFSQYLQKCPYEEHIKLVQEVTDFAKTCVADENAENCDKSIHTLFGDKLCAIPKLRDNYGELADCCAKQEPERNECFLQHKDDNPNLPPFQRPEAEAMCTSFQENPTSFLGHYLHEVARRHPYFYAPELLYYAEKYNEVLTQCCTESDKAACLTPKLDAVKEKALVAAVRQRMKCSSMQRFGERAFKAWAVARMSQRFPNAEFAEITKLATDVTKINKECCHGDLLECADDRAELAKYMCENQATISSKLQACCDKPVLQKSQCLAEIEHDNIPADLPSIAADFVEDKEVCKNYAEAKDVFLGTFLYEYSRRHPDYSVSLLLRLAKKYEATLEKCCAEGDPPACYGTVLAEFQPLVEEPKNLVKTNCELYEKLGEYGFQNAVLVRYTQKAPQVSTPTLVEAARNLGRVGTKCCTLPEAQRLPCVEDYLSAILNRLCVLHEKTPVSEKVTKCCSGSLVERRPCFSALTVDETYVPKEFKAETFTFHSDICTLPDKEKQIKKQTALAELVKHKPKATEDQLKTVMGDFAQFVDKCCKAADKDNCFATEGPNLVARSKEALA
notes: also called rat serum albumin; albumin from rat sera
B10: VL11-VL11 3L (other)
single chain VL-VL dimer: ELVMTQTPASVEAAVGGTVTIKCQASQSISRYLAWYQQKPGQPPKLLIYRASTLASGVSSRFKGSGSGTEFTLTISDLECADAATYYCQSTYVNRGSVAAFGGGTEVVVKSGGGGSGGGGSGGGGSSGELVMTQTPASVEAAVGGTVTIKCQASQSISRYLAWYQQKPGQPPKLLIYRASTLASGVSSRFKGSGSGTEFTLTISDLECADAATYYCQSTYVNRGSVAAFGGGTEVVVK
notes: Hexahistidine tail and HA tag; also called VL11-3L-VL11; VL11-11 #3L

Columns and labels:
[1] = target: T1, human TNF-alpha (human, UniProt P01375 77-233); experiment: Biacore (SPR)
T1 construct: Immobilised on a CM5 chip or coated on ELISA plates
T1 sequence (P01375 77-233 limits assumed): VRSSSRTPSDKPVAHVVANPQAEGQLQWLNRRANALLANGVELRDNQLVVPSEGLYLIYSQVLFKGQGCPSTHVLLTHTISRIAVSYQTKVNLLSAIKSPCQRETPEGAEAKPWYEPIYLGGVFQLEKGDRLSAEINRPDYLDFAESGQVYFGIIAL

[2] = target: B4; experiment: antigen cross-reactivity, as described in the Examples above
[3] = target: T2, VL18-3L-VL11 PEP DI #7; experiment: as above
T2 construct: also called Variant #7

[4] = target: T3, BSA (bovine, UniProt P02769); experiment: ELISA, BSA as negative-control antigen, anti-HA-HRP, OD 405 nm
T3 construct: coated as negative-control antigen; Negative control antigen of the ELISAs; also called bovine serum albumin
T3 sequence (P02769 25-607 limits assumed): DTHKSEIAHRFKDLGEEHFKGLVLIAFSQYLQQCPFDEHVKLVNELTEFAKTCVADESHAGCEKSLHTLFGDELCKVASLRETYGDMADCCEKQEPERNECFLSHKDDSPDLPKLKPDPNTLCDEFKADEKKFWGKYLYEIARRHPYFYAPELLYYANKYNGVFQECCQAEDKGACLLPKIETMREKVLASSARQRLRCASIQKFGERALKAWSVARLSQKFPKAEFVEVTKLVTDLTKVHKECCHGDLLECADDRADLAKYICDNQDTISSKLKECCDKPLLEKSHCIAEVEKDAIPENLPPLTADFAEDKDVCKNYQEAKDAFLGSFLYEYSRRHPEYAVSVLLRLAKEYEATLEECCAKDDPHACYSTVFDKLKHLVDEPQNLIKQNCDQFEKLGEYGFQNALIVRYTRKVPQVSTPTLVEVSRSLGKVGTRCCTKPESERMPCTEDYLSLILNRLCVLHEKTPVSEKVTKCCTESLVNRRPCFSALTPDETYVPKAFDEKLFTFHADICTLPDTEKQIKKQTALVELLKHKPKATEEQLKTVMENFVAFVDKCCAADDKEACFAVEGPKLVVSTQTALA
Method: (§1) Relative binding activities of VL monomers and constructed dimers were measured for human and rat TNF-alpha, while BSA was used as a negative control. Briefly, a 384-well ELISA plate was coated with 80 ng of human or rat TNF-alpha and incubated overnight at 4° C. Wells were blocked for one hour at 37° C. with 3% BSA in PBS. Antibody fragments were added to the wells and incubated for 1 h at room temperature. After washing the wells with PBS, anti-HA-HRP mAb (Roche) was used for detection.

[5] = target: B4; experiment: ELISA, rat TNF-alpha coated (80 ng/well), anti-HA-HRP, OD 405 nm, one unstated fragment concentration
Method: as §1

[6] = target: T1, human TNF-alpha; experiment: ELISA, human TNF-alpha coated (80 ng/well), anti-HA-HRP, OD 405 nm, one unstated fragment concentration
Method: as §1

[7] = target: T4, human albumin (human, UniProt P02768 25-609); experiment: Biacore (SPR)
T4 construct: also called human serum albumin; albumin from human sera
T4 sequence (P02768 25-609 limits assumed): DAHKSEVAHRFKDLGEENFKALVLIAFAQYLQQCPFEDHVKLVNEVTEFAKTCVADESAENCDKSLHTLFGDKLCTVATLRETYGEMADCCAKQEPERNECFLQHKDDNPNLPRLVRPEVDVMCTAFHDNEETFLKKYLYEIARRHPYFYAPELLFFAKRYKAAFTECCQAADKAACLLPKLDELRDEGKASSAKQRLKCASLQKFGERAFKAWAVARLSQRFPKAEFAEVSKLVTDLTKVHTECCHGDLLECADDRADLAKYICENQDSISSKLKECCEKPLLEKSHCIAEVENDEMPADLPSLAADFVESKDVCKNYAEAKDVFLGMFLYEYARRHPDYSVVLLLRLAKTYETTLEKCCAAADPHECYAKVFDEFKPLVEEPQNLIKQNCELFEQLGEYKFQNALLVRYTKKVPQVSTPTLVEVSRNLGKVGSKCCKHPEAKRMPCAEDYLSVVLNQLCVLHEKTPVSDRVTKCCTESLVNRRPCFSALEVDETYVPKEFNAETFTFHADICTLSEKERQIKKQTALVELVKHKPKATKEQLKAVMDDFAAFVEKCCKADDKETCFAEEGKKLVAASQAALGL

[8] = target: B9; experiment: Biacore (SPR)
[9] = target: T5, mouse albumin (mouse, UniProt P07724 25-608); experiment: antigen cross-reactivity, as described in the Examples above
T5 construct: also called mouse serum albumin; albumin from mouse sera

[10] = target: T2, VL18-3L-VL11 PEP DI #7; experiment: Biacore (SPR)

| Binder | Kd [1] | binding result [2] | binding result [4] | binding result [5] | binding result [6] | also measured |
| --- | --- | --- | --- | --- | --- | --- |
| B1 | 0.7 nM | binds | – | – | – | – |
| B2 | – | binds | – | – | – | – |
| B3 | 0.8 nM | binds | – | – | – | – |
| B4 | – | – | – | – | – | binding result [3]: binds |
| B5 | – | – | no binding | binds | binds | – |
| B6 | 0.6 nM | – | – | – | – | Kd [7]: 88.5 nM; Kd [8]: 22.4 nM |
| B7 | 0.4 nM | binds | – | – | – | Kd [7]: 92 nM; Kd [8]: 32 nM; binding result [9]: binds |
| B8 | – | – | no binding | binds | binds | – |
| B9 | – | – | – | – | – | Kd [10]: 28.1 nM |
| B10 | – | – | no binding | binds | binds | – |
